From patent publication US7326418B2, “Identification of novel factors that block programmed cell death or apoptosis by targeting JNK” (University of Chicago, priority 2001, dated 2008)
Ends that are not written are not given here.

Assays:
wild-type MEFs = test: Apoptosis assay with TAT peptides, wild-type MEFs; format: cell-based, mouse; conditions: HIV-TAT-fused peptides; MEFs at passage 4
Description: (§1) A-B, Apoptosis assays showing that peptide 1 effectively promotes killing by TNFα in IκBαM-Gadd45β and Neo 3DO clones, respectively. C-D, Apoptosis assays showing that both peptide 1 and peptide 2 can facilitate TNFα-induced cytotoxicity in wild-type MEFs, and that only peptide 2 promotes this killing in Gadd45β null MEFs, respectively. (C-D), MEFs were from twin embryos and were used at passage (p)4. A-D, Values (expressed as arbitrary units) were obtained by subtracting background values with untreated cells from values with TNFα-treated cells, and represent the mean (+/−standard deviation) of three experiments.
(§2) Treatments were as follows: murine TNFα (Peprotech), 1,000 U/ml, 10 U/ml, or 1,000 U/ml plus 0.3 μg/ml cycloheximide (CHX; FIG. 33); human TNFα (Peprotech), 2,000 U/ml; PMA plus ionomycin (Sigma), 100 ng/ml and 1 μM, respectively. Treatments with H2O2 and sorbitol were as described previously. In FIG. 33, pre-treatment with HIV-TAT peptides (5 μM) or DMSO was for 30 minutes and incubation with TNFα was for an additional 4 and 3.5 hours, respectively. In FIG. 33, peptides were used at 10 μM and incubation with TNFα was for 4 hours. Apoptosis was measured by using the Cell Death Detection ELISA PLUS kit (Roche). […]

GST-Gadd45β = target: T1, GST-Gadd45β (Mus musculus, UniProt P22339); test: GST pull-down of in vitro translated MKK7 peptides with GST-Gadd45β; format: binding, murine; conditions: fused to eGFP
T1 construct: Murine and human, full-length Gadd45J3 proteins were purified from E. coli as GST-Gadd45β and His6-tagged Gadd45β; made in house; host or cells: E. coli BL21 (pGEX-3X)
T1 sequence (P22339 1-160): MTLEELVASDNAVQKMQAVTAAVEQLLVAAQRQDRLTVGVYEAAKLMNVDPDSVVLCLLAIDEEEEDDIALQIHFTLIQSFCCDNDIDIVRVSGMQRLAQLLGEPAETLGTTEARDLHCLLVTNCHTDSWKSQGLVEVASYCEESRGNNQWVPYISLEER

gadd45β−/− MEFs = test: Apoptosis assay with TAT peptides, Gadd45β null MEFs; format: cell-based, mouse; conditions: HIV-TAT-fused peptides; MEFs at passage 4
Description: as §1, §2

GST-MKK7 = target: T2, GST-MKK7 (Homo sapiens, UniProt O14733, Q133P/Q94H); test: GST pull-down, GST-MKK7-coated beads with in vitro-translated Gadd45β products; format: binding
T2 construct: made in house; host or cells: E. coli BL21
T2 sequence (O14733 1-401 Q94H/Q133P limits assumed): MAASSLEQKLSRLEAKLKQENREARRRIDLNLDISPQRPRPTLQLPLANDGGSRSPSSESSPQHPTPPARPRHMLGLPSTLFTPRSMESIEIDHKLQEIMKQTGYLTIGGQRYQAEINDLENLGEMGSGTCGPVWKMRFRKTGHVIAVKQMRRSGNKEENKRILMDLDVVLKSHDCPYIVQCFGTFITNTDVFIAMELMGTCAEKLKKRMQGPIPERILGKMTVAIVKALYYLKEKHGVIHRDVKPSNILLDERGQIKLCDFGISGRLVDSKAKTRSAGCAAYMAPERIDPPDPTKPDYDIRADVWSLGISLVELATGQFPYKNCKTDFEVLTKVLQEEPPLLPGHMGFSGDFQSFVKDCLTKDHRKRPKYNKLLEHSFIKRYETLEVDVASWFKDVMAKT
Protocol: GST pull-down assays were performed using GST- or GST-MKK7-coated beads and in vitro-translated, Gadd45β products corresponding to the polypeptidic fragments indicated in FIG. 36A.
To generate Gadd45β polypeptides, in vitro reactions were primed with pBS-GFP-Gadd450 plasmids, encoding green fluorescent protein (GFP) directly fused to FL or truncated Gadd45β. To obtain these plasmids, pBS-Gadd45β(FL), pBS-Gadd45β (41-160), pBS-Gadd45 (60-160), pBS-Gadd45β (69-160), pBS-Gadd45β (87-160), and pBS-Gadd45β (113-160)—encoding the corresponding amino acid residues of murine Gadd45β were generated—by cloning appropriate gadd45β cDNA fragments into the XhoI and HindIII sites of pBS SK−. These plasmids, encoding either FL or truncated Gadd45β, were then opened with KpnI and XhoI, and the excised DNA fragments were replaced with the KpnI-BsrGI fragment of pEGFP-N1 (Clontech; containing the GFP-coding sequence) directly joined to the following oligonucleotide linker: 5′-[…]-3′ (SEQ ID NO: 48). These constructs were designated as pBS-GFP-Gadd45β. Gadd45β C-terminal deletions were obtained as described for the JNKK2 deletions by using pBS-GFP-Gadd45β(FL) that had been digested with the NgoMI, SphI, or EcoRV restriction enzymes to direct protein synthesis in vitro. These plasmids encoded the 1-134, 1-95, and 1-68 amino acid fragments of Gadd45β, respectively. […]

IκBαM-Gadd45β 3DO cells = test: Apoptosis assay (Cell Death Detection ELISA) with TAT peptides, IκBαM-Gadd45β 3DO clones; conditions: for TNFα-induced killing of IκBαM-Gadd45β cells: HIV-TAT-fused peptides 5 μM, 30 min pre-treatment, then TNFα
Protocol: Treatments were as follows: murine TNFα (Peprotech), 1,000 U/ml (FIG. 27) or 10 U/ml (FIG. 30); human TNFα (Peprotech), 2,000 U/ml; PMA plus ionomycin (Sigma), 100 ng/ml and 1 μM, respectively. In FIG. 30, pre-treatment with HIV-TAT peptides (5 μM) or DMSO was for 30 minutes and incubation with TNFα was for an additional 7 and 3.5 hours, respectively. Apoptosis was measured by using the Cell Death Detection ELISA^PLUS kit (Roche).
Treatments were as follows: murine TNFα (Peprotech), 1,000 U/ml, 10 U/ml, or 1,000 U/ml plus 0.3 μg/ml cycloheximide (CHX; FIG. 33); human TNFα (Peprotech), 2,000 U/ml; PMA plus ionomycin (Sigma), 100 ng/ml and 1 μM, respectively. […] In FIG. 33, pre-treatment with HIV-TAT peptides (5 μM) or DMSO was for 30 minutes and incubation with TNFα was for an additional 4 and 3.5 hours, respectively. In FIG. 33, peptides were used at 10 μM and incubation with TNFα was for 4 hours. Apoptosis was measured by using the Cell Death Detection ELISA PLUS kit (Roche).

[1] = target: T3, MKK7 inhibition by Gadd45β (Mus musculus, UniProt P22339); test: MKK7 kinase assay: peptide interference with MKK7 inhibition by Gadd45β; format: biochemical; conditions: GST-Gadd45β pre-incubated with peptides 20 min; FLAG-MKK7 from TNFα-treated 293 cells
T3 construct: Murine and human, full-length Gadd45J3 proteins were purified from E. coli as GST-Gadd45β and His6-tagged Gadd45β; made in house; host or cells: GST-Gadd45β from E. coli; FLAG-MKK7 immunoprecipitated from transfected, TNFα-treated 293 cells
T3 sequence (P22339 1-160): T1 sequence (P22339 1-160)
Protocol: (§3) FLAG-MKK7 was immunoprecipitated from TNFα-treated (10 minutes) 293 cells. b, c, are apoptosis assays showing that peptide 1 promotes killing by TNFα in IκBαM-Gadd45β and Neo clones, respectively. Values (expressed as arbitrary units) were obtained by subtracting background values with untreated cells from values with TNFα-treated cells, and represent the mean (+/−standard deviation) of three experiments.
To define interaction regions and determine whether they are sufficient for binding, Gadd45β association with overlapping peptides spanning these regions (FIG. 29e) was determined. […] This is reminiscent of the mechanism by which p27^KIP1 inhibits cyclin-dependent kinase (CDK)2. A question explored was whether MKK7, Gadd45β-binding peptides interfered with the Gadd45β ability to suppress kinase activity.
GST precipitations with in vitro-translated proteins or purified proteins (FIG. 26-30), and kinase assays were performed. […] MKK7 phosphorylation was monitored by performing immunoprecipitations with anti-P-MKK7 antibodies (developed at Cell Signaling) followed by Western blots with anti-total MKK7 antibodies. […]

[2] = test system: Neo 3DO cells (NF-κB-proficient); test: Apoptosis assay (Cell Death Detection ELISA) with TAT peptides, Neo 3DO clones; format: cell-based
Protocol: as §3
A-B, Apoptosis assays showing that peptide 1 effectively promotes killing by TNFα in IκBαM-Gadd45β and Neo 3DO clones, respectively. […] A-D, Values (expressed as arbitrary units) were obtained by subtracting background values with untreated cells from values with TNFα-treated cells, and represent the mean (+/−standard deviation) of three experiments.
Treatments were as follows: murine TNFα (Peprotech), 1,000 U/ml (FIG. 27) or 10 U/ml (FIG. 30); human TNFα (Peprotech), 2,000 U/ml; PMA plus ionomycin (Sigma), 100 ng/ml and 1 μM, respectively. […] Apoptosis was measured by using the Cell Death Detection ELISA^PLUS kit (Roche).
Treatments were as follows: murine TNFα (Peprotech), 1,000 U/ml, 10 U/ml, or 1,000 U/ml plus 0.3 μg/ml cycloheximide (CHX; FIG. 33); human TNFα (Peprotech), 2,000 U/ml; PMA plus ionomycin (Sigma), 100 ng/ml and 1 μM, respectively. […] Apoptosis was measured by using the Cell Death Detection ELISA PLUS kit (Roche). […]

Substance | cytokine (TNFα)-induced toxicity in wild-type fibroblasts (wild-type MEFs) | binding to GST-Gadd45β (GST-Gadd45β) | TNFα-induced killing in gadd45β−/− MEFs (gadd45β−/− MEFs) | binding to MKK7 in vitro (GST-MKK7) | TNFα-induced killing of IκBαM-Gadd45β cells (IκBαM-Gadd45β 3DO cells) | prevention of MKK7 inhibition by Gadd45β [1] | basal toxicity in IκBαM-Gadd45β cells (IκBαM-Gadd45β 3DO cells; HIV-TAT-fused peptide, no TNFα) | toxicity in untreated Neo cells ([2]; HIV-TAT-fused peptide, no TNFα) | TNFα-induced killing of NF-κB-proficient (Neo) cells ([2]; HIV-TAT-fused peptides 5 μM, 30 min pre-treatment, then TNFα)
NH2-TGHVIAVKQMRRSGNKEENKRILMD-COOH (H-TGHVIAVKQMRRSGNKEENKRILMD-OH; listed as Homo sapiens) [peptide 2, aa 142-166 of MKK7/JNKK2] | enhanced | does not bind | retained (and, in fact, enhanced) |  |  |  |  |  | 
IALQIHFTLIQSFCCDND [69-86 amino acid region of Gadd45β, positions 69-86 of Gadd45β] |  |  |  | sufficient to bind to MKK7 |  |  |  |  | 
peptide 7: MKK7 peptide 220-234, Gadd45β-interacting; fused to HIV-TAT peptide for cell assays (GKMTVAIVKALYYLK; also: fused to HIV-TAT peptide for cell assays; listed as Homo sapiens) |  | sufficient to recapitulate this binding |  |  | no effect | did not |  |  | 
peptide 1: MKK7 peptide 132-156, Gadd45β-interacting, spans ATP-binding site K149; fused to cell-permeable HIV-TAT peptide for cell assays (GPVWKMRFRKTGHVIAVKQMRRSGN; also: fused to HIV-TAT peptide for cell assays; listed as Homo sapiens) | enhanced | sufficient to recapitulate this binding | completely insensitive |  | markedly increased susceptibility | prevented MKK7 inhibition by Gadd45β | marginal basal toxicity | minimal toxicity | promoted TNFα-induced killing
